78 sequences from the supplement of paper PMC7877785 can be followed below.

The series can be described thus: self-splicing fitness, log relative to wild type (ln ratio); higher = more splicing; Tetrahymena group I intron in knt gene, E. coli kanamycin selection, DiMSum; sequences stand for … in CUCUCU…GGAGGGAAAAGUUAUCAGGCAUGCACCUGGUAGCUAGUCUUUAAACCAAUAGAUUGCAUCGGUUUAAAAGGCAAGACCGUCAAAUUGCGGGAAAGGGGUCAACAGCCGUUCAGUACCAAGUCUCAGGGGAAACUUUGAGAUGGCCUUGCAAAGGGUAUGGUAAUAAGCUGACGGACAUGGUCCUAACCACGCAGCCAAGUCCUAAGUCAACAGAUCUUCUGUUGAUAUGGAUGCAGUUCACAGACUAAAUGUCGGUCGGGGAAGAUGUAUUCUUCUCAUAAGAUAUAGUCGGACCUCUCCUUAAUGGGAGCUAGCGGAUGAAGUGAUGCAACACUGGAGCCGCUGGGAACUAAUUUGUAUGCGAAAGUAUAUUGAUUAGUUUUGGAGUACUCGUGGUCG
An outline of the steps:
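Six replicate transformations of E. coli BL21(DE3) with a pET-22b(+) library were grown overnight at 37°C or 30°C. The library randomised all eight P1ex-region intron nucleotides, the intron lying in the knt kanamycin-resistance gene, and plates were LB agar with or without 25 μg/mL kanamycin plus 100 μg/mL carbenicillin, 50 μM IPTG and 0.2% rhamnose. Pooled colonies were amplicon-sequenced on an Illumina HiSeq 2500, and fitness is the DiMSum error-weighted combination of wild-type-normalised replicate fold changes, kanamycin versus none.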

± gives the uncertainty stated by the source.

As for CCCCAGCAAUAUUACGAGCG, the “self-splicing fitness (ln)” value runs as follows: (30 °C) -4.16 ± 0.24; (37 °C) -2.62 ± 0.23. In the same order, the values of UAUAAGCAAUAUUACGUACC are -2.51 ± 0.19 and -1.2 ± 0.16.

Take CGUAAGCAAUAUUACGGCAC: the “self-splicing fitness (ln)” value is, setting by setting: (30 °C) -3.68 ± 0.29; (37 °C) -0.595 ± 0.22. For GGUAAGCAAUAUUACGCCGG the same measures were -3.09 ± 0.47 and -1.93 ± 0.47.

Consider AUGCAGCAAUAUUACGCGAA, for which the “self-splicing fitness (ln)” value is -1.76 ± 0.13 (30 °C) and -1.03 ± 0.11 (37 °C).

For the sequence GCUAAGCAAUAUUACGACCG, the “self-splicing fitness (ln)” value was -0.349 ± 0.17 (30 °C) and 0.0102 ± 0.24 (37 °C). For CACUAGCAAUAUUACGCACG the same measures were -0.378 ± 0.099 and -0.823 ± 0.089.

For the sequence GUUUAGCAAUAUUACGUGAU, the “self-splicing fitness (ln)” value was -0.892 ± 0.17 (30 °C) and -0.419 ± 0.12 (37 °C). Regarding CGCAAGCAAUAUUACGGGGA, the “self-splicing fitness (ln)” value reads like this: (30 °C) -3.1 ± 0.2; (37 °C) -2.69 ± 0.23. As to ACACAGCAAUAUUACGGCGA, the “self-splicing fitness (ln)” value by setting is: (30 °C) -0.436 ± 0.086; (37 °C) -0.165 ± 0.09.

AGGUAGCAAUAUUACGGUAC: the “self-splicing fitness (ln)” value was -3.522 ± 0.032 (30 °C) and -2.07 ± 0.04 (37 °C). For AUAUAGCAAUAUUACGAAGA the same measures were -2.16 ± 0.4 and -1.98 ± 0.47. For ACUCAGCAAUAUUACGCGUU the same measures were -1.91 ± 0.055 and -1.18 ± 0.072.

Regarding CCAUAGCAAUAUUACGUGCU, the “self-splicing fitness (ln)” value is -3.88 ± 0.17 (30 °C) and -2.1 ± 0.15 (37 °C).

For GUUCAGCAAUAUUACGGCCA, the “self-splicing fitness (ln)” value reads like this: (30 °C) -0.626 ± 0.12; (37 °C) -0.426 ± 0.15.

UAUUAGCAAUAUUACGAAAC: where the note is “37 °C”, the “self-splicing fitness (ln)” value is -2.53 ± 0.3. For UUGAAGCAAUAUUACGUCAU, the “self-splicing fitness (ln)” value was -1.41 ± 0.056 (30 °C) and -0.306 ± 0.069 (37 °C). In the same order, the values of UAUUAGCAAUAUUACGAUCC are -3.56 ± 0.38 and -1.76 ± 0.25. As to AGGGAGCAAUAUUACGUUUC, for the setting “37 °C”, the “self-splicing fitness (ln)” value was -2.44 ± 0.24.

Turning to CGUUAGCAAUAUUACGGGAU, the “self-splicing fitness (ln)” value (37 °C) is -2.25 ± 0.26. For the sequence CAAUAGCAAUAUUACGGCGU, the “self-splicing fitness (ln)” value reads like this: (30 °C) -2.07 ± 0.11; (37 °C) -0.986 ± 0.12. In the same order, the values of UGUGAGCAAUAUUACGGGGU are -3.98 ± 0.21 and -2.75 ± 0.28. Take GUCUAGCAAUAUUACGGGCC: the “self-splicing fitness (ln)” value (30 °C) is -3.14 ± 0.36. As for CCUUAGCAAUAUUACGUGCA, the “self-splicing fitness (ln)” value reads like this: (30 °C) -3.43 ± 0.23; (37 °C) -3.76 ± 0.28.

Turning to GUUUAGCAAUAUUACGGCCA, the “self-splicing fitness (ln)” value is -1.35 ± 0.14 (30 °C) and -0.725 ± 0.15 (37 °C). For CAGAAGCAAUAUUACGGGUU the same measures were -3.12 ± 0.24 and -3.23 ± 0.21. In the same order, the values of AUCUAGCAAUAUUACGCCCA are -0.101 ± 0.29 and -1.32 ± 0.24.

For UCCGAGCAAUAUUACGCGUA, the “self-splicing fitness (ln)” value (30 °C) was -1.14 ± 0.098 and the “self-splicing fitness (ln)” value (37 °C) was -0.936 ± 0.11. In the same order, the values of ACUUAGCAAUAUUACGGGUA are -1.14 ± 0.11 and -1.54 ± 0.14. For CACAAGCAAUAUUACGGGGG the same measures were -3.12 ± 0.11 and -2.1 ± 0.11.

As for CGGGAGCAAUAUUACGCCAC, the “self-splicing fitness (ln)” value is -3.63 ± 0.29 (30 °C) and -2.63 ± 0.41 (37 °C). In the same order, the values of GCUGAGCAAUAUUACGUCCA are -1.97 ± 0.27 and -2.32 ± 0.37. As for ACCUAGCAAUAUUACGUGGA, the “self-splicing fitness (ln)” value is -2.36 ± 0.093 (30 °C) and -1.62 ± 0.084 (37 °C). For CACAAGCAAUAUUACGGAAC the same measures were -4.35 ± 0.24 and -3.71 ± 0.25.

Take UUAGAGCAAUAUUACGGCUU: the “self-splicing fitness (ln)” value is, setting by setting: (30 °C) -2.83 ± 0.21; (37 °C) -1.79 ± 0.22. In the case of UGUUAGCAAUAUUACGUAGC, the “self-splicing fitness (ln)” value (37 °C) was -0.793 ± 0.22. For UAGUAGCAAUAUUACGCCAG, the “self-splicing fitness (ln)” value (30 °C) is -2.8 ± 0.15 and the “self-splicing fitness (ln)” value (37 °C) is -1.94 ± 0.15. For AGAUAGCAAUAUUACGGGCC the same measures were -1.68 ± 0.19 and -2.68 ± 0.36. For GAUAAGCAAUAUUACGCUUU, the “self-splicing fitness (ln)” value reads like this: (30 °C) -1.7 ± 0.14; (37 °C) -2.17 ± 0.21. Take GUACAGCAAUAUUACGGCUU: the “self-splicing fitness (ln)” value (30 °C) is -0.512 ± 0.08 and the “self-splicing fitness (ln)” value (37 °C) was 0.22 ± 0.09.

With UAGAAGCAAUAUUACGAGAA, the “self-splicing fitness (ln)” value reads like this: (30 °C) -1.7 ± 0.44; (37 °C) -1.55 ± 0.35. On to CAAGAGCAAUAUUACGCCGU, for which the “self-splicing fitness (ln)” value (30 °C) is -1.59 ± 0.47. Regarding GGCUAGCAAUAUUACGGGCG, the “self-splicing fitness (ln)” value (30 °C) was -1.34 ± 0.095 and the “self-splicing fitness (ln)” value (37 °C) is -0.19 ± 0.12. With UACUAGCAAUAUUACGCGCC, the “self-splicing fitness (ln)” value (37 °C) is -1.37 ± 0.37.

Regarding ACUGAGCAAUAUUACGUUGG, the “self-splicing fitness (ln)” value (30 °C) was -4.04 ± 0.2 and the “self-splicing fitness (ln)” value (37 °C) was -2.17 ± 0.18. For CGUGAGCAAUAUUACGGAUA the same measures were -3.1 ± 0.3 and -2.71 ± 0.34.

With CACAAGCAAUAUUACGACUC, the “self-splicing fitness (ln)” value (30 °C) was -1.97 ± 0.11 and the “self-splicing fitness (ln)” value (37 °C) was -0.998 ± 0.12.

Regarding UCCGAGCAAUAUUACGGAGG, the “self-splicing fitness (ln)” value was -2.66 ± 0.16 (30 °C) and -2.65 ± 0.24 (37 °C). For UGAAAGCAAUAUUACGUCGC the same measures were -3.49 ± 0.23 and -2.98 ± 0.32. In the same order, the values of AACUAGCAAUAUUACGUUAU are -2.63 ± 0.11 and -1.75 ± 0.12. For GCUUAGCAAUAUUACGGGAA the same measures were -0.679 ± 0.12 and 0.196 ± 0.11.

For GGGGAGCAAUAUUACGUACU, the “self-splicing fitness (ln)” value by setting is: (30 °C) -1.58 ± 0.17; (37 °C) -0.886 ± 0.16.

Consider GAGAAGCAAUAUUACGAACU, for which the “self-splicing fitness (ln)” value is -0.774 ± 0.085 (30 °C) and -0.288 ± 0.092 (37 °C). For AAUCAGCAAUAUUACGUGCG the same measures were -0.392 ± 0.058 and -0.216 ± 0.08. For CUCAAGCAAUAUUACGGUGC the same measures were -4.1 ± 0.31 and -3.19 ± 0.27. Consider CCCAAGCAAUAUUACGGAUC, for which the “self-splicing fitness (ln)” value (30 °C) is -4.28 ± 0.23 and the “self-splicing fitness (ln)” value (37 °C) was -2.45 ± 0.15. For UGGCAGCAAUAUUACGGACU the same measures were -0.554 ± 0.066 and 0.386 ± 0.082. For GAAUAGCAAUAUUACGCGGC the same measures were -1.42 ± 0.19 and -2.38 ± 0.3. Regarding CGGUAGCAAUAUUACGAACC, under “37 °C”, the “self-splicing fitness (ln)” value is -1.2 ± 0.31. As for UUCCAGCAAUAUUACGAAAC, for the setting “37 °C”, the “self-splicing fitness (ln)” value was -2.29 ± 0.35. As to GGCAAGCAAUAUUACGUGAG, the “self-splicing fitness (ln)” value (30 °C) is -1.21 ± 0.059 and the “self-splicing fitness (ln)” value (37 °C) is -0.0615 ± 0.08.

Regarding ACCUAGCAAUAUUACGACGC, the “self-splicing fitness (ln)” value (30 °C) was -0.289 ± 0.11 and the “self-splicing fitness (ln)” value (37 °C) came out at 0.164 ± 0.12. In the same order, the values of CGGCAGCAAUAUUACGUGCA are -1.03 ± 0.27 and -0.293 ± 0.23. For AAUAAGCAAUAUUACGCAGU the same measures were -3.08 ± 0.22 and -2.04 ± 0.19.

Consider ACUCAGCAAUAUUACGCCAU, for which the “self-splicing fitness (ln)” value runs as follows: (30 °C) -3.02 ± 0.17; (37 °C) -2.28 ± 0.16. In the same order, the values of AGAAAGCAAUAUUACGCCAU are -3.16 ± 0.2 and -2.21 ± 0.2. Take UUACAGCAAUAUUACGAUAC: the “self-splicing fitness (ln)” value by setting is: (30 °C) -3.01 ± 0.32; (37 °C) -3.46 ± 0.39. In the same order, the values of AAUUAGCAAUAUUACGACGA are -0.729 ± 0.12 and -0.15 ± 0.2. In the same order, the values of UAUAAGCAAUAUUACGUUCA are -0.586 ± 0.09 and -0.352 ± 0.14. Take ACGGAGCAAUAUUACGCUCC: the “self-splicing fitness (ln)” value (37 °C) is -1.28 ± 0.37. UCGGAGCAAUAUUACGCGGA: the “self-splicing fitness (ln)” value runs as follows: (30 °C) -2.32 ± 0.33; (37 °C) 0.916 ± 0.15. UGGCAGCAAUAUUACGCUGC: the “self-splicing fitness (ln)” value (30 °C) was -2.98 ± 0.25.

In the case of UUUAAGCAAUAUUACGGGUC, the “self-splicing fitness (ln)” value (30 °C) is -3.19 ± 0.35 and the “self-splicing fitness (ln)” value (37 °C) was -2.25 ± 0.35. Take UCAAAGCAAUAUUACGGCGG: the “self-splicing fitness (ln)” value is, setting by setting: (30 °C) -0.543 ± 0.063; (37 °C) -0.0651 ± 0.088. As for UGCGAGCAAUAUUACGCCGC, the “self-splicing fitness (ln)” value (30 °C) was -3.34 ± 0.36 and the “self-splicing fitness (ln)” value (37 °C) was -1.3 ± 0.43. In the same order, the values of CGAGAGCAAUAUUACGGGCU are -3.67 ± 0.22 and -2.18 ± 0.28.

AGAUAGCAAUAUUACGGUAC: the “self-splicing fitness (ln)” value is -3.91 ± 0.28 (30 °C) and -2.42 ± 0.22 (37 °C). Regarding GGCCAGCAAUAUUACGACAC, the “self-splicing fitness (ln)” value (30 °C) is -0.242 ± 0.1 and the “self-splicing fitness (ln)” value (37 °C) came out at 0.0601 ± 0.17.
